Measurements taken from the supplement of paper PMC11136658.

Test system: peptide library, one residue held at a place counted from the Y acceptor
Test: relative phosphorylation of the sub-library (ratio to the mean residue at this position); higher = residue favoured
Method in brief: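 Within 384-well plates, purified recombinant kinases phosphorylated biotinylated Tyr-centred peptide library mixtures over 90 min using 50 μM ATP spiked with γ-32P-ATP; each mixture fixed one residue at one position from −5 to +5. Streptavidin membrane capture, rinsing, phosphorimaging and ImageQuant gave the intensities. These were normalized per position to the sum of the 18 randomized residues (16 for the Ser/Thr-free library) and multiplied by that number.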

Chain of PTK2B, construct: aa360-690, human (Q14289 360-690, looked up): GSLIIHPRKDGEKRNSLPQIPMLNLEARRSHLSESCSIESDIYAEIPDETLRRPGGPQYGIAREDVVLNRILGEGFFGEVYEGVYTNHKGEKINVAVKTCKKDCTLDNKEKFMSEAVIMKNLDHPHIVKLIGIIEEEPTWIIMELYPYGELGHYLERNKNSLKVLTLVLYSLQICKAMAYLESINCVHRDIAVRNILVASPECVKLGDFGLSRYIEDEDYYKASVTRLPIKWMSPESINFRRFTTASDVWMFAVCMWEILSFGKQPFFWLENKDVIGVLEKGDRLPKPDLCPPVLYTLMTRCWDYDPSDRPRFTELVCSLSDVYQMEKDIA
Chain of ROS1, construct: aa1883-end, human (P08922 1883-2347, looked up): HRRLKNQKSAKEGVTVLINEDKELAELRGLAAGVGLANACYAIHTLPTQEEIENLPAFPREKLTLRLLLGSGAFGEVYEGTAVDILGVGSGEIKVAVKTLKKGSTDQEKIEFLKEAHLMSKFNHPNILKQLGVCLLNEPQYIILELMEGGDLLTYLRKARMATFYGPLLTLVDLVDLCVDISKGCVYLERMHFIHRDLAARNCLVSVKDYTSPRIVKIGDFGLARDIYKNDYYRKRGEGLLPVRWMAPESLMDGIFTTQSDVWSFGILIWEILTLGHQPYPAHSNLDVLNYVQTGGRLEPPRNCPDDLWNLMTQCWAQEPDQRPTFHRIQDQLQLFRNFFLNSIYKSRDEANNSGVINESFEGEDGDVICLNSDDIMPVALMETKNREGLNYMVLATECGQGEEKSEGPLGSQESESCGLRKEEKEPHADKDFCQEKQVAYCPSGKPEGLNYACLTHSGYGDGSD

PTK2B, construct: aa360-690, human (from UniProt Q14289)
relative phosphorylation
Settings	at +1	at +2	at +3	at +4	at +5	at -1	at -2	at -3	at -4	at -5
A fixed	2.28	0.739	0.756	0.904	1.08	0.722	1.03	1.03	1.15	1.03
D fixed	1.55	0.792	0.312	0.86	0.799	0.478	1.34	1.28	0.976	0.952
E fixed	2.04	1.29	0.341	0.961	0.887	0.489	1.54	1.52	0.85	0.801
F fixed	0.834	1.85	1.42	1.04	0.992	1.06	0.634	0.986	1.29	1.07
G fixed	1.1	0.402	0.58	1.02	1.31	0.297	1.06	1.07	1.23	1.14
H fixed	0.593	0.657	0.685	1.05	0.966	0.719	0.953	0.965	1.01	1.05
I fixed	1.12	1.56	2.46	0.896	0.903	4.36	1.02	0.657	0.851	0.978
K fixed	0.171	0.444	0.228	0.762	0.731	0.29	0.703	0.866	0.915	1.13
L fixed	0.499	1.68	1.61	0.925	0.92	1.99	1.02	0.816	1.07	1.04
M fixed	0.908	1.13	1.11	1.15	1	0.811	0.729	0.903	0.939	1.08
N fixed	0.297	0.815	0.397	0.711	0.838	0.63	1.13	1.18	0.937	1.02
P fixed	0.374	0.702	2.31	1.08	1.72	0.488	1.15	0.97	1.14	1.01
Q fixed	0.788	0.679	0.365	0.992	0.758	0.443	1.09	0.895	0.918	0.896
R fixed	0.215	0.603	0.298	0.938	0.912	0.374	0.748	0.923	0.969	1.16
S fixed	1.15	0.82	0.669	0.981	1.1	0.534	1.08	1.27	0.927	0.98
T fixed	1.02	0.823	0.794	0.875	1.09	0.935	0.962	1.02	0.679	0.825
V fixed	2.02	1.27	2.28	1.09	0.926	2.67	1.2	0.704	0.86	0.926
W fixed	1.04	1.75	1.4	1.77	1.07	0.714	0.613	0.95	1.3	0.917
pThr fixed	3.7	2.29	0.44	0.84	0.752	0.624	1.09	0.878	0.728	0.817
pTyr fixed	2.13	6.16	0.885	1.48	0.901	1.53	1.17	1.32	0.964	0.94

ROS1, construct: aa1883-end, human (from UniProt P08922)
relative phosphorylation
Settings	at +1	at +2	at +3	at +4	at +5	at -1	at -2	at -3	at -4	at -5
A fixed	1.4	0.764	0.709	0.96	0.93	1.04	1.06	0.892	1.22	1.17
D fixed	0.482	0.396	0.211	0.611	0.583	1.09	0.882	0.994	1.09	0.993
E fixed	0.947	0.547	0.174	0.772	0.512	1.09	1.1	1.04	1.18	0.873
F fixed	1.06	1.19	1.65	1.19	1.47	0.882	0.738	0.932	0.878	0.868
G fixed	0.696	0.581	0.722	1.09	1.1	0.835	1.2	1.2	1.36	1.31
H fixed	1.07	0.954	1.67	1.13	0.93	1.21	1.07	1.09	0.888	0.99
I fixed	1.33	0.963	1.57	0.865	0.776	1.11	0.797	0.727	0.827	0.878
K fixed	0.501	1.3	0.858	1.27	1.3	0.592	1.01	0.968	1.04	1.08
L fixed	1.37	1.41	1.49	0.918	0.831	1.33	0.872	0.863	0.995	0.882
M fixed	1.36	1.17	1.33	1.07	0.873	0.975	0.733	0.828	0.855	0.922
N fixed	0.551	1.04	0.581	0.88	0.981	1.29	1.1	1.2	0.935	1.05
P fixed	0.446	0.904	0.532	0.972	1.64	1.45	1.29	1.23	1.19	1.24
Q fixed	1.09	0.94	0.669	1.14	0.958	0.964	1.16	0.915	1.11	0.963
R fixed	0.649	1.31	1.07	1.31	1.25	0.533	1.1	1.09	0.982	1.12
S fixed	1.26	1.01	0.793	0.979	1.2	0.975	1.18	1.17	0.898	0.967
T fixed	1.25	0.937	0.922	0.87	0.894	0.906	1.02	1.07	0.724	0.93
V fixed	1.42	1.08	1.27	0.988	0.622	0.976	0.906	0.824	0.859	0.879
W fixed	1.1	1.5	1.77	0.989	1.16	0.762	0.774	0.976	0.972	0.891
pThr fixed	0.802	0.447	0.162	0.305	0.359	0.848	0.859	0.877	0.86	0.871
pTyr fixed	1.06	0.646	0.306	0.529	0.409	1.74	1.03	1.15	1.09	0.896
